Test results as given in the supplement of paper PMC12764529.
± gives the half width of the 95% confidence interval.

Legend:
[1] = folding stability dG unfold from trypsin proteolysis; higher = more stable
Procedure, shortened: (§1)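 K50 was inferred by Bayesian fitting of sequencing counts obtained after protease digestion of designed mini-proteins. Unfolding free energy was derived by comparison with a sequence-predicted unfolded-state K50 and a shared folded-state K50, for each protease or both combined. The mini-proteins were under 80 residues, had no cysteine, were carried in a PA-tagged cDNA display construct, and were kept only if AlphaFold2 dimer inter-PAE exceeded 15.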

[2] = folding stability dG unfold (combined trypsin and chymotrypsin); higher = more stable
Procedure, shortened: as §1

[3] = folding stability dG unfold from chymotrypsin proteolysis; higher = more stable
Procedure, shortened: as §1

Row | Sequence | folding stability dG unfold [1] [kcal/mol] | folding stability dG unfold [2] [kcal/mol] | folding stability dG unfold [3] [kcal/mol]
1 | SAGGSAGGSAGMVFLDPETRLLLVVHPNGEPELVLLEDGRAVLFHPSTGERREIPLAEIGSAGGSAGGSAGG [r11_297_TrMRF] | -0.195 ± 0.13 | 0.263 ± 0.12 | 0.318 ± 0.12
2 | SAGGSAGGSAGMVIVDPERGYIYIPFPEDIEPEEFIEANKIPEFDIEVLEIGENIPVIKLSAGGSAGGSAGG [r17_323_TrMRF] | 0.357 ± 0.047 | 0.209 ± 0.096 | -0.0485 ± 0.12
3 | SAGGSAGGSAGMVLLKSEEEAEELRKPNVSLSVTPVPPVEVSEGDPNALAYEVELKPPLESAGGSAGGSAGG [r11_168_JUSTAS] | 1.49 ± 0.053 | 0.86 ± 0.11 | 0.0585 ± 0.17
4 | SAGGSAGGSAGMVTIYADPDGSYTAHFPDGSSASYSSLEEVKANLKAKYPDVKDVVIEKTSAGGSAGGSAGG [r11_806_JUSTAS] | 2.17 ± 0.088 | 3.11 ± 0.084 | 3.449 ± 0.034
5 | SAGGSAGGSAGMVTVGDTEVVIEKDPNSDKYTVTVTPADGTTETLTFDSEEEVERYIEAKSAGGSAGGSAGG [r11_238_JUSTAS] | 1.49 ± 0.051 | 1.61 ± 0.052 | 1.7 ± 0.035
6 | SAGGSAGGSAGMVVVERTSAPDPDKPTSYWFYTKTTFFPDGSVLSETKKFPSPAELEKATSAGGSAGGSAGG [r11_792_JUSTAS] | 0.793 ± 0.023 | 0.992 ± 0.07 | 1.07 ± 0.12
7 | SAGGSAGGSAGMVYITKGKDGIWYEAEVDPTKPGAKVKVRHPLTGKEEEITPAEVVAVPPSAGGSAGGSAGG [r11_822_TrMRF] | 0.141 ± 0.15 | 0.155 ± 0.42 | -0.546 ± 0.6
8 | SAGGSAGGSAGMWIDEDTIRRLAALLGYPGKVEVVRLEDGSLLVVVYGDTEPGVLLFPLDSAGGSAGGSAGG [r11_410_TrMRF] | 3.02 ± 0.079 | 2.59 ± 0.048 | 2.255 ± 0.017
9 | SAGGSAGGSAGMYVITIKLPSGEVIKIKTDPKNPEEAIKKLEPQYPPAEFEVKEVPENEISAGGSAGGSAGG [r11_103_JUSTAS] | 0.633 ± 0.041 | 0.254 ± 0.18 | -0.198 ± 0.26
10 | SAGGSAGGSAGMYYVIKRPGKVEILPEEEVPKVIEEDPNVEVKKFDSEEEAKKALEELLKSAGGSAGGSAGG [r11_60_JUSTAS] | 0.539 ± 0.039 | 0.704 ± 0.058 | 0.793 ± 0.073
11 | SAGGSAGGSAGNIILPFEIESIDIEEETAIDPETGEPVKVKKILIRLKGTGKIIEISFTEKSAGGSAGGSAG [r3_424_TrMRF] | 2.76 ± 0.23 | 2.88 ± 0.26 | 3.01 ± 0.11
12 | SAGGSAGGSAGNLKPVSGGGVLKVEVKDPNTDKKETYLVPPNKPDVVLELAKDGYEVEVSSAGGSAGGSAGG [r11_1006_TrMRF] | 0.938 ± 0.11 | 0.639 ± 0.14 | 0.227 ± 0.14
13 | SAGGSAGGSAGNLKVVDISIWRTDDMRYIMFKLEGDGLTIMIWVPPKEPGKIQIMIFPLDSAGGSAGGSAGG [r11_1046_TrROS] | 3.49 ± 0.23 | 4.34 ± 0.16 | 4.51 ± 0.1
14 | SAGGSAGGSAGNMWDQALRAAREAKDQGDEEVVIHFPPNMKNWVKEWAEDLGWPIKIQPTSAGGSAGGSAGG [r11_371_TrROS] | 0.128 ± 0.17 | -0.0966 ± 0.19 | 0.027 ± 0.25
15 | SAGGSAGGSAGNPNTPVIVKITLPGGKEITLEGTVSEAEEIVKKLEEEGHPFVEVEVYNRSAGGSAGGSAGG [r11_946_JUSTAS] | 0.422 ± 0.041 | 0.0762 ± 0.14 | -0.849 ± 0.3
16 | SAGGSAGGSAGNWKIKNIEPVRLPNNVHIMKFQIPGRSLIFVFDPKNGQKRWIPLKDIKPSAGGSAGGSAGG [r17_286_TrROS] | -0.301 ± 0.25 | -0.0705 ± 0.09 | -0.0752 ± 0.14
17 | SAGGSAGGSAGPEITVVKAPDEGYYYLIKLKVTYTLRDPETTAPLAEFEVEYYFLDRGSASAGGSAGGSAGG [r17_124_TrMRF] | 3.3 ± 0.28 | 4.58 ± 0.47 | 4.91 ± 0.12
18 | SAGGSAGGSAGPENKNYMVMEMTIDIWIPLPPNAKVVFDPDEGKWKYVPIKIPIRIVMPWSAGGSAGGSAGG [r11_257_TrROS] | 2.91 ± 0.14 | 3.2 ± 0.15 | 3.43 ± 0.12

Row | Sequence | folding stability dG unfold [1] [kcal/mol] | folding stability dG unfold [2] [kcal/mol] | folding stability dG unfold [3] [kcal/mol]
19 | SAGGSAGGSAGPEVIEIKNPKTGKTYRIVRNKDGKLLIYNEATGKVAVFKDGKIELVPAPSAGGSAGGSAGG [r17_476_TrROS_Hall] | 1.14 ± 0.07 | 1.05 ± 0.16 | 0.825 ± 0.21
20 | SAGGSAGGSAGPEVRIELERDEDGRLRLRATFKLEDGKEVRVEVEFDLKTKKLTVKIEPVSAGGSAGGSAGG [r11_107_TrROS_Hall] | 3.83 ± 0.19 | 4.63 ± 0.39 | 4.8 ± 0.41
21 | SAGGSAGGSAGPEWYVVMRVENPGTGKEVHFIGPWDDFKEKLPPSNVKMEWHLIPADALKSAGGSAGGSAGG [r11_334_TrROS] | 0.0887 ± 0.066 | 0.494 ± 0.061 | 0.666 ± 0.06
22 | SAGGSAGGSAGPFKIEMTFIFKKDNEYYIAKIEIEISPDGYPKMKIEIKKVDINELENYFSAGGSAGGSAGG [r11_690_TrMRF] | 2.52 ± 0.15 | 4.04 ± 0.4 | 4.39 ± 0.14
23 | SAGGSAGGSAGPFTIMVIERVPPDDPEYDKLHKDNGMPPENMIRIKIFRFKSPEQLKELFSAGGSAGGSAGG [r11_83_TrROS] | 1.82 ± 0.038 | 2.08 ± 0.086 | 2.12 ± 0.06
24 | SAGGSAGGSAGPGLSITTTITTTTPAKLPNGTAPLRTTTTTIITELKPADPNNPVILANTSAGGSAGGSAGG [r11_236_JUSTAS] | 1.05 ± 0.053 | 0.746 ± 0.048 | 0.278 ± 0.069
25 | SAGGSAGGSAGPKIKIKKFPDFLIAEIEFPDGKKATAIFDPKTGKIIVFVGDKPIEIDIGSAGGSAGGSAGG [r11_846_TrMRF] | 2.16 ± 0.059 | 3.1 ± 0.07 | 3.49 ± 0.09
26 | SAGGSAGGSAGPKPLATITLPYPDNASVTITVTPNGVLIDPDPNITNPEVEKAVADALTDSAGGSAGGSAGG [r11_372_TrMRF] | 1.55 ± 0.11 | 1.41 ± 0.099 | 1.07 ± 0.12
27 | SAGGSAGGSAGPLKIKKLELRKLPDGFVEMTAEFEGPENYTVRLIVRKDDPNKLVLEVFPSAGGSAGGSAGG [r11_618_TrROS_Hall] | 2.07 ± 0.095 | 2.69 ± 0.16 | 2.98 ± 0.057
28 | SAGGSAGGSAGPLTLTATFLSDYNYAVTVTLTFEVDENGNLSVSGEVEIRPVPPLGPGNASAGGSAGGSAGG [r11_728_TrMRF] | 2.42 ± 0.1 | 3.72 ± 0.15 | 4.05 ± 0.11
29 | SAGGSAGGSAGPMEVERETIMIPIDPDKGYYIMIDVWRYKNPGGPPFPAPSISIMDLDDLSAGGSAGGSAGG [r11_51_TrROS] | 1.78 ± 0.072 | 2.68 ± 0.11 | 3.11 ± 0.045
30 | SAGGSAGGSAGPNIYVSIKWKHNNGPVTHQIPIPPNDPPEILDEMSKQPGFKVTDIEVMPSAGGSAGGSAGG [r11_692_TrROS] | -0.836 ± 0.35 | -0.213 ± 0.25 | -0.0146 ± 0.3
31 | SAGGSAGGSAGPNNMYPYEITIEVRDDGKPVKIKIEMYMSPNGEPMPPEQIKNFAKELAKSAGGSAGGSAGG [r17_373_TrROS] | 0.382 ± 0.24 | 0.398 ± 0.23 | 0.444 ± 0.17
32 | SAGGSAGGSAGPNWKKYTFTIFFPGYPFRVEIERPKDGPNAPLAIKIEDPNGKPMETFPISAGGSAGGSAGG [r11_223_TrROS] | 2.71 ± 0.11 | 2.67 ± 0.12 | 2.61 ± 0.082
33 | SAGGSAGGSAGPPDQNFLIKIKWQENGKKREHTIPIPAENLDEVLDELSPWPGLEVEIIPSAGGSAGGSAGG [r17_50_TrROS] | -0.408 ± 0.085 | -0.376 ± 0.19 | -0.295 ± 0.11
34 | SAGGSAGGSAGPPIMVMVHKHDKEDGKPKIDESIPIDIPPDQQDKLKEEANERGYHVHPFSAGGSAGGSAGG [r17_18_TrROS] | 0.207 ± 0.054 | 0.158 ± 0.091 | 0.0379 ± 0.11
35 | SAGGSAGGSAGPPNKPVYVRVRIQMPNGKKKTFWFKDVEQIEKNLKEEFGIRDIEIEPIKSAGGSAGGSAGG [r17_508_TrROS] | 1.62 ± 0.028 | 1.67 ± 0.046 | 1.71 ± 0.026
36 | SAGGSAGGSAGPTLTLELLFRNEDGSLYAVRVRYDLDTDKVEIEVRRLPPAEPVTVTVEDSAGGSAGGSAGG [r11_657_TrROS_Hall] | 2.8 ± 0.12 | 3.7 ± 0.17 | 4.26 ± 0.052
